Experiment [1] deals with Hoc- Soc- bacteriophage T4 capsid (Soc binding sites) (bacteriophage T4) (UniProt P04535).
Experiment [2] shares this target. Description: in vitro binding to Hoc- Soc- T4 phage, SDS-PAGE.

A word on the Kd: it is the free concentration of one partner at which half of the binding sites on the other are occupied at equilibrium, for simple one-to-one binding. In experiment [1], “F1mutV-Soc (66 kDa) recombinant protein with RB49 Soc” showed a Kd of 298 nM and a percent occupancy of the 870 Soc binding sites of 75%. For the same substance, the ratio of antigen molecules to Soc binding sites at saturation (antigen molecules : Soc binding sites) in experiment [2] came to 20.
For “Soc-PA (93 kDa) recombinant protein with RB49 Soc”, in that order: 737 nM, 42% and 20.

These data come from US20180264102A1.
